Data published in paper PMC12182893.

Target: Pseudotyped lentivirus displaying Omicron BA.5 S protein (PV) (SARS-CoV-2 Omicron BA.5) (UniProt P0DTC2)
Test: dot blot (filter binding)

Row | Sequence | Kd
1 | TTACGTCAAGGTGTCACTCCTGTGGGTGGAATGGGGAAGGGAGTGTTTTTTTTTTCGGAGATGTGTGTGTGAAACAGTGGGAAGCATCTCTTTGGCGTG [DRDA10] | 0.0043 pM
2 | TTACGTCAAGGTGTCACTCCTGTGGGTGGAATGGGGAAGGGAGTGTTTTTTTTTGTGAGATGTGTGGTGTGGAATGGGGAAGCATCTCTTTGGCGTG [DRDA8] | 0.0028 pM
